Results as given in patent publication US20260217789A1 (GLYCOERA, published 2026).

Columns and labels:
[1] = molecular target: T1, PLA2R glycoengineered polypeptide (human, UniProt Q13018 21-505, N-glycans, mainly A2GalNAc2 (83.6% of total N-glycan); six N-glycosylation sites: N93, N315, N433, N454, N473 and one in the C-terminal glycotag; occupancy per Table 2: N93 >99%, N315 <10%, N433 <1%, …); experiment: SPR, Biacore 8K, single cycle kinetics, heterogeneous binding model; biotinylated ASGPR1 on streptavidin, 2 mM CaCl2 (FIG. 1C)
T1 construct: Secreted from glycoengineered Leishmania tarentolae (cell line StCGP6199) and purified by IMAC; also called exemplary PLA2R glycoengineered polypeptide; glycoengineered PLA2R polypeptide
From the text: (§1) Methods: Surface plasmon resonance (SPR) was used to measure binding kinetics (i.e., ka, kd, KD, equilibrium) of a glycoengineered PLA2R polypeptide. SPR data was collected with a Biacore 8K instrument to characterize interactions between the PLA2R glycoengineered polypeptide and surrogate anti-PLA2R antibody 12-6-5 in multiple assay formats. The surrogate antibody was either captured using the Fc tag or covalently immobilized on the sensor surface, and the PLA2R glycoengineered polypeptide construct was injected in increasing concentrations in a single cycle kinetics experiment. The contact time was 300 s and the dissociation time was 1200 s. The data was fit to a 1:1 binding model with the global fitting software provided by Cytivia. For ASGPR1 binding experiments, biotinylated recombinant human ASGPR1 (Acro Biosystems) was immobilized using streptavidin capture, and increasing concentrations of the PLA2R glycoengineered polypeptide were injected in a single cycle kinetics experiment. ASGPR1 assays included 2 mM CaCl₂) in the running buffer. The data were fit using a heterogeneous binding model using the Cytvia provided software.

[2] = molecular target: T1, PLA2R glycoengineered polypeptide; experiment: SPR (Biacore 8K), single cycle kinetics, immobilized ligand ASGPR1 1ug/mL (biotinylated, streptavidin capture), heterogeneous binding model; column kd1 (first component)
From the text: as §1

[3] = molecular target: T1, PLA2R glycoengineered polypeptide; experiment: SPR (Biacore 8K), single cycle kinetics, immobilized ligand ASGPR1 1ug/mL (biotinylated, streptavidin capture), heterogeneous binding model; column ka1 (first component)
From the text: as §1

[4] = molecular target: T1, PLA2R glycoengineered polypeptide; experiment: SPR (Biacore 8K), single cycle kinetics, immobilized ligand ASGPR1 1ug/mL (biotinylated, streptavidin capture), heterogeneous binding model; column KD1 (first component)
From the text: as §1

[5] = molecular target: T1, PLA2R glycoengineered polypeptide; experiment: SPR, Biacore 8K, steady state KD; biotinylated ASGPR1 on streptavidin, 2 mM CaCl2 (FIG. 1C)
From the text: as §1

T1 sequence (Q13018 other isoform, or with tags, fused parts or gaps): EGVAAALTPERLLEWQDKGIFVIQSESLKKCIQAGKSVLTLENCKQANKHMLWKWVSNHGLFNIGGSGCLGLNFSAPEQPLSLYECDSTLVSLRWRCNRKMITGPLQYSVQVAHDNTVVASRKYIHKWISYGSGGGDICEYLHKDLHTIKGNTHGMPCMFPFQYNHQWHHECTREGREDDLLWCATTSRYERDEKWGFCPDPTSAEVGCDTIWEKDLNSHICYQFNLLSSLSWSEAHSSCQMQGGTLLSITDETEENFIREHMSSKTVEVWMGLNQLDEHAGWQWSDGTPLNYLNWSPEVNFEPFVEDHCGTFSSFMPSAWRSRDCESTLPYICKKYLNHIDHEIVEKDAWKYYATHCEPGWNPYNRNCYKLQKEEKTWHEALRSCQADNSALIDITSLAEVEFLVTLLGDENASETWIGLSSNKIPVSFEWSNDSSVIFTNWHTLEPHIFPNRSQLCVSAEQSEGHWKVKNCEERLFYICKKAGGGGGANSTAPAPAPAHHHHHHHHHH

- koff [1]: 0.104 s⁻¹
- kon [1]: 80900 M⁻¹ s⁻¹
- koff [2]: 0.00294 s⁻¹
- kon [3]: 421000 M⁻¹ s⁻¹
- Kd [4]: 7 nM
- Kd [5]: 1280 nM
B1: biotinylated recombinant human ASGPR1 (Acro Biosystems) (receptor, UniProt P07306 62-291, looked up)
chain: QNSQLQEELRGLRETFSNFTASTEAQVKGLSTQGGNVGRKMKSLESQLEKQQKDLSEDHSSLLLHVKQFVSDLRSLSCQMAALQGNGSERTCCPVNWVEHERSCYWFSRSGKAWADADNYCRLEDAHLVVVTSWEEQKFVQHHIGPVNTWMGLHDQNGPWKWVDGTDYETGFKNWRPEQPDDWYGHGLGGGEDCAHFTDDGRWNDDVCQRPYRWVCETELDKASQEPPLL
modifications: biotinylated
notes: It was immobilized by streptavidin capture
